Earlier results in article PMC4316816.

Biological target: ANP (UniProt P01160)
Chain of UniProt P01160 (P01160 124-151): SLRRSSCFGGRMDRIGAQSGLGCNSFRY

Kd: 24 nM
Substance: GC-A/NPRA (from UniProt P16066)
